From patent US20170209564A1

Experiments:
Settings in all cases: remark: other sources report otherwise
113E7 [1] = assay: ELISA, coated CR6261, HEK293F medium
115A1 [2] = assay: ELISA, coated CR6261, HEK293F medium
127H1 [3] = assay: ELISA, coated CR6261, HEK293F medium
131B5 [4] = assay: ELISA, coated CR6261, HEK293F medium
171E5 [5] = assay: ELISA, coated CR6261, HEK293F medium
181H9 [6] = assay: ELISA, coated CR6261, HEK293F medium
220C9 [7] = assay: ELISA, coated CR6261, HEK293F medium
6E12 [8] = assay: ELISA, coated CR6261, HEK293F medium
71C4 [9] = assay: ELISA, coated CR6261, HEK293F medium
71H2 [10] = assay: ELISA, coated CR6261, HEK293F medium
74H9 [11] = assay: ELISA, coated CR6261, HEK293F medium
7A7 [12] = assay: ELISA, coated CR6261, HEK293F medium
86B4 [13] = assay: ELISA, coated CR6261, HEK293F medium
91C4 [14] = assay: ELISA, coated CR6261, HEK293F medium
11H6 = assay: ELISA, coated CR6261, P. pastoris medium
2C4 = assay: ELISA, coated CR6261, P. pastoris medium
35H3 = assay: ELISA, coated CR6261, P. pastoris medium
58C8 = assay: ELISA, coated CR6261, P. pastoris medium
78F11 = assay: ELISA, coated CR6261, P. pastoris medium
7B6 = assay: ELISA, coated CR6261, P. pastoris medium
86B4 [15] = assay: ELISA, coated CR6261, P. pastoris medium
90A9 = assay: ELISA, coated CR6261, P. pastoris medium
91C8 = assay: ELISA, coated CR6261, P. pastoris medium
91F10 = assay: ELISA, coated CR6261, P. pastoris medium
113E7 [16] = assay: ELISA signal over HTRF expression signal, HEK293F
115A1 [17] = assay: ELISA signal over HTRF expression signal, HEK293F
127H1 [18] = assay: ELISA signal over HTRF expression signal, HEK293F
131B5 [19] = assay: ELISA signal over HTRF expression signal, HEK293F
171E5 [20] = assay: ELISA signal over HTRF expression signal, HEK293F
181H9 [21] = assay: ELISA signal over HTRF expression signal, HEK293F
220C9 [22] = assay: ELISA signal over HTRF expression signal, HEK293F
6E12 [23] = assay: ELISA signal over HTRF expression signal, HEK293F
71C4 [24] = assay: ELISA signal over HTRF expression signal, HEK293F
71H2 [25] = assay: ELISA signal over HTRF expression signal, HEK293F
74H9 [26] = assay: ELISA signal over HTRF expression signal, HEK293F
7A7 [27] = assay: ELISA signal over HTRF expression signal, HEK293F
86B4 [28] = assay: ELISA signal over HTRF expression signal, HEK293F
91C4 [29] = assay: ELISA signal over HTRF expression signal, HEK293F
s127H1 = assay: apparent Kd (Kd^app), purified polypeptide; method not stated
s55G7 = assay: as above
s6E12 = assay: as above
s74H9 = assay: as above
s86B4 = assay: as above

B1: CR6261 (antibody, V domains shown)
VH: EVQLVESGAEVKKPGSSVKVSCKASGGPFRSYAISWVRQAPGQGPEWMGGIIPIFGTTKYAPKFQGRVTITADDFAGTVYMELSSLRSEDTAMYYCAKHMGYQVRETMDVWGKGTTVTVSS
VL: QSVLTQPPSVSAAPGQKVTISCSGSSSNIGNDYVSWYQQLPGTAPKLLIYDNNKRPSGIPDRFSGSKSGTSATLGITGLQTGDEANYYCATWDRRPTAYVVFGGGTKLTVLG
CR6261 binding signal (113E7 [1]): 1.3e+07 | CR6261 binding signal (115A1 [2]): 9.56e+06 | CR6261 binding signal (127H1 [3]): 2.42e+07 | CR6261 binding signal (131B5 [4]): 5.73e+06 | CR6261 binding signal (171E5 [5]): 6.63e+06 | CR6261 binding signal (181H9 [6]): 1.19e+07 | CR6261 binding signal (220C9 [7]): 8.49e+06 | CR6261 binding signal (6E12 [8]): 1.53e+07 | CR6261 binding signal (71C4 [9]): 6.41e+06 | CR6261 binding signal (71H2 [10]): 2.11e+07 | CR6261 binding signal (74H9 [11]): 2.61e+07 | CR6261 binding signal (7A7 [12]): 6.19e+06 | CR6261 binding signal (86B4 [13]): 2e+07 | CR6261 binding signal (91C4 [14]): 8.44e+06 | CR6261 binding signal (11H6): 427000 | CR6261 binding signal (2C4): 258000 | CR6261 binding signal (35H3): 106000 | CR6261 binding signal (58C8): 277000 | CR6261 binding signal (78F11): 84100 | CR6261 binding signal (7B6): 60400 | CR6261 binding signal (86B4 [15]): 1.08e+06 | CR6261 binding signal (90A9): 414000 | CR6261 binding signal (91C8): 334000 | CR6261 binding signal (91F10): 14800 | fold increase of ratio over parental SEQ ID NO: 6 (113E7 [16]): 2.87 | ratio (binding signal/HTRF signal) (113E7 [16]): 49.9 | fold increase of ratio over parental SEQ ID NO: 6 (115A1 [17]): 3.14 | ratio (binding signal/HTRF signal) (115A1 [17]): 54.5 | fold increase of ratio over parental SEQ ID NO: 6 (127H1 [18]): 4.25 | ratio (binding signal/HTRF signal) (127H1 [18]): 73.8 | fold increase of ratio over parental SEQ ID NO: 6 (131B5 [19]): 2.36 | ratio (binding signal/HTRF signal) (131B5 [19]): 41 | fold increase of ratio over parental SEQ ID NO: 6 (171E5 [20]): 1.62 | ratio (binding signal/HTRF signal) (171E5 [20]): 28.1 | fold increase of ratio over parental SEQ ID NO: 6 (181H9 [21]): 2.11 | ratio (binding signal/HTRF signal) (181H9 [21]): 36.6 | fold increase of ratio over parental SEQ ID NO: 6 (220C9 [22]): 3 | ratio (binding signal/HTRF signal) (220C9 [22]): 52.1 | fold increase of ratio over parental SEQ ID NO: 6 (6E12 [23]): 2.85 | ratio (binding signal/HTRF signal) (6E12 [23]): 49.5 | fold increase of ratio over parental SEQ ID NO: 6 (71C4 [24]): 1.72 | ratio (binding signal/HTRF signal) (71C4 [24]): 29.9 | fold increase of ratio over parental SEQ ID NO: 6 (71H2 [25]): 3.61 | ratio (binding signal/HTRF signal) (71H2 [25]): 62.7 | fold increase of ratio over parental SEQ ID NO: 6 (74H9 [26]): 4.37 | ratio (binding signal/HTRF signal) (74H9 [26]): 75.8 | fold increase of ratio over parental SEQ ID NO: 6 (7A7 [27]): 1.47 | ratio (binding signal/HTRF signal) (7A7 [27]): 25.5 | fold increase of ratio over parental SEQ ID NO: 6 (86B4 [28]): 3.44 | ratio (binding signal/HTRF signal) (86B4 [28]): 59.6 | fold increase of ratio over parental SEQ ID NO: 6 (91C4 [29]): 1.98 | ratio (binding signal/HTRF signal) (91C4 [29]): 34.4 | Kd (s127H1): 130 nM | Kd (s55G7): 150 nM | Kd (s6E12): 390 nM | Kd (s74H9): 130 nM | Kd (s86B4): 150 nM
